± gives the uncertainty stated by the source.
Test: protein stability index of a GFP-peptide fusion (yeast GPS) (PSI 1-4); higher = more stable; sorted into four equal gates, so the index is relative within each strain
In short: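 Tiled 17-residue yeast protein peptides were fused downstream of GFP in a plasmid that also expresses Cherry, and the pooled library was carried in yeast. Mid-log cultures in leucine-free medium were sorted into four equal gates by GFP/Cherry fluorescence ratio, and plasmids from each gate were PCR-amplified and Illumina-sequenced, with reads assigned to strains by barcodes. The protein stability index for each peptide was each gate's read frequency times its gate number, summed.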

Row | Sequence | protein stability index (doa10∆) | protein stability index (pdr5∆) | protein stability index (san1∆) | protein stability index (ubr1∆)
1 | PREDKENNRLLFECRTC [RPB9] | 3.29 ± 0.14 | 3.17 ± 0.13 | 3.02 ± 0.17 | 3.29 ± 0.16
2 | LPHITQLEGFESRKAFF [RPB2] | 2.92 ± 0.082 | 2.96 ± 0.06 | 3.08 ± 0.052 | 3.12 ± 0.041
3 | KSLGGGAALKDIEIVRV [FAS2] | 2.27 ± 0.26 | 3.39 ± 0.15 | 3.17 ± 0.088 | 
4 | YSFGGLLMRLEGNYRNL [RPB8] | 1.8 ± 0.12 | 2.55 ± 0.12 | 3.06 ± 0.17 | 2.56 ± 0.088
5 | ASEVATHSKLFADKKRD [PRP8] | 2.51 ± 0.063 | 2.69 ± 0.073 | 2.31 ± 0.079 | 2.56 ± 0.068
6 | TQPKSSSSMDMQANTNA [SSN3] | 2.55 ± 0.06 | 2.43 ± 0.046 | 3.13 ± 0.041 | 2.45 ± 0.039
7 | LWRNFCRKLSFSDKVNA [ITC1] | 2.09 ± 0.19 | 1.76 ± 0.2 | 1.14 ± 0.23 | 1.37 ± 0.094
8 | SKSESDSQIVTPGELVT [RRP4] | 3.07 ± 0.11 | 3.17 ± 0.066 | 2.88 ± 0.077 | 2.83 ± 0.066
9 | ARENAPSIIFIDEVDSI [RPT3] | 2.75 ± 0.14 | 2.46 ± 0.11 | 2.74 ± 0.06 | 2.41 ± 0.066
10 | MKLNISYPVNGSQKTFE [RPS6A] | 2.65 ± 0.17 | 2.77 ± 0.12 | 2.79 ± 0.12 | 2.94 ± 0.13
11 | YVDEQSKNELKKAFTSY [RPS16A] | 3.06 ± 0.059 | 3.21 ± 0.044 | 3.07 ± 0.051 | 3.13 ± 0.052
12 | LREKEDKKNSSDPNNQS [YJL039C/NUP192] | 3.06 ± 0.11 | 3.09 ± 0.13 | 3.17 ± 0.099 | 3.33 ± 0.071
13 | KKNIDYQNRSTRSQFCL [RRI1] | 3.01 ± 0.039 | 2.94 ± 0.04 | 2.88 ± 0.034 | 3.079 ± 0.026
14 | NTSSKRQKKKPTSAQKS [IRR1] | 2.71 ± 0.084 | 2.59 ± 0.08 | 2.5 ± 0.061 | 2.87 ± 0.07
15 | IRDSIPQMDSFDKDLER [DIS3] | 3.15 ± 0.092 | 3.32 ± 0.1 | 3.19 ± 0.061 | 3.01 ± 0.12
16 | HSGELMRQQSKELQQLQ [SMC1] | 2.89 ± 0.15 | 2.98 ± 0.13 | 2.9 ± 0.11 | 2.7 ± 0.27
17 | GLGYVFEFQYLTIGVKF [SRB5] | 1.15 ± 0.088 | 1.53 ± 0.1 | 1.08 ± 0.15 | 1.31 ± 0.087
18 | TTNLDIDLLTFQYGSRL [RPP1] | 3.29 ± 0.087 | 3.22 ± 0.073 | 3.06 ± 0.092 | 2.98 ± 0.055
19 | YDPIKRIDAFNALEHKY [SSN3] | 2.83 ± 0.058 | 2.85 ± 0.041 | 2.73 ± 0.05 | 2.77 ± 0.043
20 | DLLDMIQFGAKNMFEKK [ISW2] | 3.25 ± 0.14 | 3.29 ± 0.24 | 3 ± 0.16 | 
21 | YARFKNDFFPGEVVYLR [ITC1] | 3.29 ± 0.083 | 1.99 ± 0.069 | 2.58 ± 0.1 | 3.22 ± 0.091
22 | NFNSSAPIADDNHSGDA [DSN1] | 1.92 ± 0.081 | 2.8 ± 0.1 | 2.45 ± 0.09 | 2.68 ± 0.067

Row | Sequence | protein stability index (doa10∆) | protein stability index (pdr5∆) | protein stability index (san1∆) | protein stability index (ubr1∆)
23 | SQCRLHELREKERISVA [PRE2] | 2.25 ± 0.11 | 2.59 ± 0.097 | 2.87 ± 0.097 | 1.67 ± 0.04
24 | MKRNCGQIITLFSSRRL [RMP1] | 2.3 ± 0.045 | 2.46 ± 0.053 | 2.42 ± 0.058 | 2.29 ± 0.071
25 | MSNTLFDDIFQVSEVDP [RPB8] | 3.02 ± 0.084 | 2.77 ± 0.098 | 2.85 ± 0.1 | 3.08 ± 0.054
26 | NPTEFDWPTYVDQNPLT [SRB8] | 2.85 ± 0.068 | 2.44 ± 0.043 | 2.69 ± 0.054 | 2.19 ± 0.046
27 | VINKLDRLILDLKLPPM [SNU114] | 2.05 ± 0.12 | 1.31 ± 0.12 | 1.06 ± 0.23 | 2.14 ± 0.1
28 | EAELSSTKVENSAIIQN [YIL149C/MLP2] | 2.77 ± 0.11 | 2.87 ± 0.069 | 2.98 ± 0.056 | 3.13 ± 0.062
29 | AAAAVCEKWAASSWAKK [RPL14A] | 2.52 ± 0.052 | 3.08 ± 0.089 | 2.56 ± 0.056 | 2.68 ± 0.058
30 | SSVNEDTFLPPPPPPPS [PRP8] | 2.73 ± 0.041 | 2.72 ± 0.04 | 2.44 ± 0.038 | 2.46 ± 0.037
31 | GILLLDSLIQLANRSKE [YJL039C/NUP192] | 1.86 ± 0.064 | 1.74 ± 0.059 | 1.64 ± 0.099 | 1.97 ± 0.051
32 | FMDEIDSIGSTRVEGSG [RPT6] | 2.57 ± 0.076 | 2.56 ± 0.12 | 2.84 ± 0.069 | 2.46 ± 0.073
33 | RAIPFRRFNSSIGRTAQ [RPL17A] | 2.91 ± 0.07 | 2.87 ± 0.08 | 2.89 ± 0.097 | 2.68 ± 0.06
34 | CHLYSQRMHAIHEIDER [NNF1] | 1.24 ± 0.082 | 1.64 ± 0.065 | 1.8 ± 0.1 | 1.63 ± 0.073
35 | VRIYSGLLKRGDTVRIL [SNU114] |  | 2.92 ± 0.17 | 2.66 ± 0.17 | 3.02 ± 0.1
36 | KPVYKGKKLTDEINTAQ [RET1] | 2.92 ± 0.12 | 2.99 ± 0.094 | 2.75 ± 0.084 | 3.2 ± 0.077
37 | QVNQLQRILEVLGTPDQ [SSN3] | 1.49 ± 0.043 | 1.69 ± 0.037 | 1.34 ± 0.05 | 1.51 ± 0.038
38 | SKNCYLSEATESDLYKL [RPB2] | 3.02 ± 0.12 | 3.22 ± 0.14 | 2.9 ± 0.17 | 2.75 ± 0.093
39 | SCAIHARIVRVRSREDR [RPS26A] | 2.41 ± 0.14 | 1.39 ± 0.11 | 1.4 ± 0.18 | 2.62 ± 0.089
40 | MPNIELYLKVIPMDFIR [SSN2] | 2.22 ± 0.072 | 2.14 ± 0.076 | 1.95 ± 0.082 | 2.54 ± 0.079
41 | KETQQYELEFDTPTSGK [BRR2] | 2.99 ± 0.05 | 2.98 ± 0.055 | 3.05 ± 0.041 | 3.08 ± 0.045
42 | RRKDTSMVLFFVCLSCS [RPB9] | 1.3 ± 0.052 | 1.32 ± 0.07 | 1.4 ± 0.12 | 1.38 ± 0.039
43 | LNTFGSKICLSHFSLDQ [ITC1] | 2.48 ± 0.06 | 2.18 ± 0.042 | 2.09 ± 0.095 | 2.33 ± 0.039
44 | RILKNVSPNDNNSANNN [YMR153W/NUP53] | 2.75 ± 0.052 | 2.42 ± 0.048 | 2.29 ± 0.054 | 2.59 ± 0.044

Source: the supplement of paper PMC9732359
